Assay results taken from the supplement of paper PMC7125110.
± gives the standard error. This sample holds only a part of the variants without activity.

B1: glmS ribozyme (parent)
chain: AUAAAAGCGCCAGAACUACAGAAAUGUAGUUGACGAGGAGGAGGUUUAUCGAAUUUUCGGCGGAUGCCUCCAAA

Key:
Conditions in all cases: with glucosamine-6-phosphate
[1] = variants of: B1; experiment: self-cleavage kobs at 640 uM GlcN6P; higher = faster cleavage; RNA array
In short: (§1)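 Over ~14 h at 37 °C, tiles were imaged as glucosamine-6-phosphate (40 μM to 10 mM) in HEPES/KCl/Mg(OAc)2 buffer flowed across sequenced MiSeq chips. The chips carried barcoded ribozyme variants transcribed in situ by E. coli RNA polymerase and tracked with a hybridised Cy3 probe. After normalisation to baseline and to non-cleaving reference variants, one- or two-exponential decay fits of per-tile medians gave kobs. kcat and KM followed from weighted Michaelis–Menten fits across concentrations.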

[2] = variants of: B1; experiment: self-cleavage kobs at 2500 uM GlcN6P; higher = faster cleavage; RNA array
In short: as §1

[3] = variants of: B1; experiment: self-cleavage kobs at 160 uM GlcN6P; higher = faster cleavage; RNA array
In short: as §1

[4] = variants of: B1; experiment: self-cleavage kobs at 10000 uM GlcN6P; higher = faster cleavage; RNA array
In short: as §1

Variant	self-cleavage kobs at 640 uM GlcN6P [1] [s⁻¹]	self-cleavage kobs at 2500 uM GlcN6P [2] [s⁻¹]	self-cleavage kobs at 160 uM GlcN6P [3] [s⁻¹]	self-cleavage kobs at 10000 uM GlcN6P [4] [s⁻¹]
C16A C68G	0.000279 ± 0.00013	3.3e-05 ± 9.2e-06	–	–
G26U A42U	6.28e-05 ± 1.6e-05	0.000124 ± 2.5e-05	–	–
G37U G41C G60U	< 1e-05	–	–	–
G7C A15C A39U A42C U57A	< 1e-05	< 1e-05	–	–
U46C G51C C70U	< 1e-05	< 1e-05	–	–
A33C C70A	< 1e-05	–	< 1e-05	< 1e-05
G13A A52U C70G	< 1e-05	–	–	–
C8U U56C	< 1e-05	< 1e-05	< 1e-05	< 1e-05
G9A C61G	< 1e-05	–	< 1e-05	–
C10U G13C C16G G32A	–	–	< 1e-05	–
G7U U30G C34G	–	< 1e-05	< 1e-05	< 1e-05
G7C C16U G44U	–	–	< 1e-05	–
U47G U55A C68G C71G	0.000142 ± 4.5e-05	–	–	4.14e-05 ± 1.5e-05
G35A U47A C50G U54G	0.000171 ± 6.3e-05	0.000152 ± 4.7e-05	–	–
A12C U65G	0.000543 ± 8.2e-05	0.00157 ± 0.00024	0.000115 ± 2.1e-05	–
A12C A36G U69C	–	–	< 1e-05	–
G7A A48U C71U	< 1e-05	< 1e-05	< 1e-05	–
G35U G44U C68A	< 1e-05	< 1e-05	–	–
G9A C58A	< 1e-05	< 1e-05	< 1e-05	–
A6G G9C G60C G63A C68U	< 1e-05	–	–	–

Variant	self-cleavage kobs at 640 uM GlcN6P [1] [s⁻¹]	self-cleavage kobs at 2500 uM GlcN6P [2] [s⁻¹]	self-cleavage kobs at 160 uM GlcN6P [3] [s⁻¹]	self-cleavage kobs at 10000 uM GlcN6P [4] [s⁻¹]
G9C U31G U57A	< 1e-05	–	–	–
C16A G41U	< 1e-05	–	–	–
G7U G40U	< 1e-05	< 1e-05	< 1e-05	< 1e-05
C10A G32C G38C	–	< 1e-05	< 1e-05	–
G41A C67A	–	–	< 1e-05	4.21e-05 ± 8.7e-06
A12U G32A G37A U45A	–	–	< 1e-05	–
U31G G35C U46A C70G	< 1e-05	< 1e-05	< 1e-05	–
U47C G51U C68U	–	< 1e-05	< 1e-05	–
A14C A36G C58U	–	–	< 1e-05	–
A52U A53C C71G	< 1e-05	< 1e-05	–	–
A14U U45A U46A	–	0.00178 ± 0.00057	0.00056 ± 0.00015	–
A12U U30C	0.00125 ± 0.00032	0.0109 ± 0.0027	0.000652 ± 0.00019	–
A15C C50G G66U	–	–	5.42e-05 ± 1.8e-05	–
A6C G40U C61A	–	< 1e-05	< 1e-05	< 1e-05
A12G U31G U55A C67U	5.14e-05 ± 1.3e-05	0.00011 ± 1.9e-05	–	0.000176 ± 3.2e-05
G43C U45A C67U	0.000977 ± 0.00034	0.00269 ± 0.00071	0.000282 ± 9.2e-05	–
A6C G29C C58G C71A	0.000108 ± 4.5e-05	–	6.35e-05 ± 1.9e-05	–
G9U C68G	–	< 1e-05	< 1e-05	< 1e-05
A39G G41A G59U G60U	–	–	< 1e-05	–
G35U G40A A52U	< 1e-05	< 1e-05	–	–

Variant	self-cleavage kobs at 640 uM GlcN6P [1] [s⁻¹]	self-cleavage kobs at 2500 uM GlcN6P [2] [s⁻¹]	self-cleavage kobs at 160 uM GlcN6P [3] [s⁻¹]	self-cleavage kobs at 10000 uM GlcN6P [4] [s⁻¹]
A48U C68U C70U	–	–	< 1e-05	–
C11A C67U C71G	0.000295 ± 9e-05	0.00108 ± 0.00018	–	4.96e-05 ± 1.3e-05
C11G U30G A42U A53U G63U U65A C68G	< 1e-05	–	–	–
A14U A15G G60U G66A	< 1e-05	–	–	–
A12U U31C C67U	0.000286 ± 9.1e-05	–	–	–
C8A A48G A53U	< 1e-05	< 1e-05	–	–
C11G U49G U57C	–	–	< 1e-05	–
C11G A36C G38U C50A U65G	< 1e-05	< 1e-05	–	< 1e-05
G7U A12G U45C U46G C71U	–	< 1e-05	< 1e-05	–
A33U A36U	< 1e-05	< 1e-05	< 1e-05	< 1e-05
C50G G60U	–	4.39e-05 ± 1.9e-05	4.83e-05 ± 1.6e-05	–
G7A U56C C68U	< 1e-05	–	–	< 1e-05
C8U G63U C68U	< 1e-05	–	–	–
G13C A33C	< 1e-05	< 1e-05	–	–
C8U C34G G41A	< 1e-05	–	< 1e-05	–
U49A G62A	< 1e-05	–	< 1e-05	–
C11G C67A C71G	0.000132 ± 3.5e-05	0.000135 ± 4.2e-05	4.73e-05 ± 1.9e-05	–
G9U C10A A42U G51A U54G G60C	< 1e-05	–	–	–
G7A G9U C58A	< 1e-05	–	< 1e-05	–
